Assay [1] has as its target T1, CHO-hu α11 (Homo sapiens, UniProt Q9UKX5).
T1 construct: expressed in transfected cells; host or cells: CHO-K1
The experiment in a line: FACS antibody binding to CHO-K1 cells expressing human α11. The protocol: 200,000 cells (wild-type CHO-K1 cells or CHO-K1 cells expressing human α11) were incubated with each antibody at desired concentrations in FACS buffer for 30 min at 4° C. Then, the cells were washed with FACS buffer and incubated with secondary antibody at 1:100 dilution for 30 minutes at 4° C. Cells were then washed and fixed with 1% PF A in PBS for 20 minutes at room temperature; washed again and read on a cytometer in FACS buffer.

Assay [2] has as its target T1, CHO-hu α11. The experiment in a line: Cell adhesion inhibition on type I collagen (xCelligence). It counts as cell-based. The protocol: 0.6×10^6 cells/mL were incubated with each antibody at a range of concentrations for 20 minutes at 37° C. E-Plate VIEW 96 PET plate coated with 100 ng/ml type I collagen or PBS overnight at room temperature was blocked in 3% BSA for 1 hour at room temperature. After washing the plate with PBS, cell and antibody mixture was added to the wells and the plate was places into an xCelligence machine. Cell adhesion was recorded over 6 hours. The time point of maximum cell adhesion was used for comparison relative to control.

In assay [3] the target is Pulmonary Myofibroblast. Put plainly: FACS antibody binding to pulmonary myofibroblasts (HPF/MF). More on the design: species or system human. As to conditions: Table 11, 1994-01-C7 variants, FIG. 4B. The method, then:
Human Pulmonary Fibroblasts (ScienCell) were cultured in complete Fibroblast Growth Medium (ScienCell) until 80% confluent in T-150 flasks. Cells were washed and harvested using Accutase. Cells were seeded into T-150 flasks at 7,500 cells/cm^2 in complete FGF and cultured for 72 hours. Cells were then washed and starved in serum reduced medium for 24 hours. After starvation, cells were treated with TGFβ1 (R&D Systems) for 72 hours. Cells were harvested using Accutase and seeded in 96-well conical bottom plates. Cells were blocked with Heat Inactived Fetal Bovine Serum (Gibco) for 30 minutes at 4° C. Cells were then incubated with anti-al I antibodies at the doses described in each figure for 30 minutes at 4° C. A human anti-al I antibody (Creative BioLabs) was included as a positive control as well as the appropriate IgG isotype negative controls. Cells were washed twice and incubated with PE conjugated secondary antibodies specific to the IgG class of the anti-α11 antibodies being tested for 30 minutes at 4° C. Cells were washed twice and fixed in 1% PF A for 30 minutes. Cells were acquired on a FACS Verse […]. Data were analyzed by gating on single cells and determining the geometric Mean Fluorescence Intensity (gMFI) in the PE channel for each sample.

The mark [4] stands for this setting: Table 11, 1994-01-C7 variants, FIG. 4A.
Setting [5] is: Table 11, 1994-01-C7 variants, FIG. 4C, read-out: Inhibition of Cell Adhesion IC50.
[6] abbreviates: Table 12, 16E10 variants, FIG. 5B, read-out: CHO-α11 Adhesion Inhibition IC50.

Like-named read-outs stand apart in the source and are kept apart here.

As a reminder, the EC50 is the midpoint of the concentration-response curve. A low value points to an effect from little substance. For orientation: IC50 means the point on the concentration scale where inhibition reaches its midpoint.

T1 sequence (Q9UKX5 23-1188): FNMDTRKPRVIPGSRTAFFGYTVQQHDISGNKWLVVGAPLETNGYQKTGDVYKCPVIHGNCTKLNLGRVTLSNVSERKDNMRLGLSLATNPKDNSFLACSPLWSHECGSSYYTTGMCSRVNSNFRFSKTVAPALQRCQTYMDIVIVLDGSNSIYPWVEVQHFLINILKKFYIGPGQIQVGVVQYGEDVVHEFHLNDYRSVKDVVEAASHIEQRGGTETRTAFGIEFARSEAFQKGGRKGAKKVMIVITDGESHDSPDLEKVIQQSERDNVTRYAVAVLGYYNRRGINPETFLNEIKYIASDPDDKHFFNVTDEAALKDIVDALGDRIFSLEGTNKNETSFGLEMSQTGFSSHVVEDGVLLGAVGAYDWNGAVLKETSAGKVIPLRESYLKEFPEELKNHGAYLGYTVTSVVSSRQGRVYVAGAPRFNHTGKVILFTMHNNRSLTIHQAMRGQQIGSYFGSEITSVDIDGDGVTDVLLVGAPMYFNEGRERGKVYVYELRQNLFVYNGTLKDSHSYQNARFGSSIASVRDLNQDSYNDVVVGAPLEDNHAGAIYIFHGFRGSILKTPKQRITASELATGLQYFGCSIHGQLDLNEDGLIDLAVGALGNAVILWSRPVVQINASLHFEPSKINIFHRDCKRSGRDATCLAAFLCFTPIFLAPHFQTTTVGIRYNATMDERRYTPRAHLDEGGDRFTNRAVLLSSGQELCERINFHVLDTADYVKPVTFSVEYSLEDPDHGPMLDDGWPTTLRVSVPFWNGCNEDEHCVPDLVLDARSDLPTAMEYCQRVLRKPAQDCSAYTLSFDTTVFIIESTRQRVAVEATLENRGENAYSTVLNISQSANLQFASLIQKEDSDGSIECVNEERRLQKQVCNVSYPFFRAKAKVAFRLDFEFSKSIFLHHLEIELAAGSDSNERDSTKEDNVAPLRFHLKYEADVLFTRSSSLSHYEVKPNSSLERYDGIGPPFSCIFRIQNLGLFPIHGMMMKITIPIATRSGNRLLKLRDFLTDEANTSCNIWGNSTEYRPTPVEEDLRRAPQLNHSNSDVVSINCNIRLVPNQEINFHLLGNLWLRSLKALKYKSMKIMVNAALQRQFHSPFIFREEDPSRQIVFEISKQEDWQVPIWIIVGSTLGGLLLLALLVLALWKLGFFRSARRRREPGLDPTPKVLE
T1 sequence (P05556 21-798 partner): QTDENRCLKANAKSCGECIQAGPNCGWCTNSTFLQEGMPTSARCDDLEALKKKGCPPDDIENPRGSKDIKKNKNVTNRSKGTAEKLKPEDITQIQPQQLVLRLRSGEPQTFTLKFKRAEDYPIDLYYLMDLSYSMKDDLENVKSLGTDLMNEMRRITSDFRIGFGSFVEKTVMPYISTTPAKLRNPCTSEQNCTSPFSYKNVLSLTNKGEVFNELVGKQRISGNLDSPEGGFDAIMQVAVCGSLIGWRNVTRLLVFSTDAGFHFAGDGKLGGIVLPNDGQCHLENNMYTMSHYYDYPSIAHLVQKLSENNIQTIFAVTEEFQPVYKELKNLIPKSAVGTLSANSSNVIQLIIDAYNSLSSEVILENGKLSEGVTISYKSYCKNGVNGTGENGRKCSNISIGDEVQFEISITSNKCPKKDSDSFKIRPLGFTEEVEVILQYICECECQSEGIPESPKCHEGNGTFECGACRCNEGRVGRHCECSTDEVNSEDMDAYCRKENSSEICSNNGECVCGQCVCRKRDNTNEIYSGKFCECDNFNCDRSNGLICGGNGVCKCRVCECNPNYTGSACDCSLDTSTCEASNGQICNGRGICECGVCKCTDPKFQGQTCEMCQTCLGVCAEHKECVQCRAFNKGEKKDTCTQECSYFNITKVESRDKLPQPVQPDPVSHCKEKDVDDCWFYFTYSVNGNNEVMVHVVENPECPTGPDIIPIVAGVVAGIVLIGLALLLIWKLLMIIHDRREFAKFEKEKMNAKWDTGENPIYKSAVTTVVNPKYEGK

B1: Antibody 58: 1994-01-C7 variant; VH SEQ ID NO: 31, VL SEQ ID NO: 37 (antibody, V domains shown)
VH: QVQLVQSGAEVKKPGASVKVSCKASGYTFTSYGISWVRQAPGQGLEWMGWISAYNANVNYAQKLQGRVTMTTDTSTSTAYMELRSLRSDDTAAYYCARVTGITGTTIGPWGQGTMVTVSS
VL: DIQMTQSPSSLSASVGDRVTITCRASQSISSYLNWYQQKPGKAPKLLIYDASSLESGVPSRFSGSGSGTEFTLTISSLQPDDFAVYYCQQYNNWPQTFGQGTKVEIK
With B1, the EC50 in assay [1] (setting [4]) came to 5.94 nM; in assay [3] it was 2.87 nM. Also, in assay [2] (setting [5]), the IC50 came out at 3 nM.

B2: Antibody 60: 1994-01-C7 variant; VH SEQ ID NO: 33, VL SEQ ID NO: 37 (antibody, V domains shown)
VH: QVQLVQSGAEVKKPGASVKVSCKASGYTFTSYGISWVRQAPGQGLEWMGWISAYNSNTNYAQKLQGRVTMTTDTSTSTAYMELRSLRSDDTAAYYCARVTGITGTTIGPWGQGTMVTVSS
VL: DIQMTQSPSSLSASVGDRVTITCRASQSISSYLNWYQQKPGKAPKLLIYDASSLESGVPSRFSGSGSGTEFTLTISSLQPDDFAVYYCQQYNNWPQTFGQGTKVEIK
Regarding B2, the EC50 in assay [1] (setting [4]) was 5.3 nM; in assay [3], 4.6 nM. The IC50 in assay [2] (setting [5]) was 4.2 nM.

B3: A11BB142: 79E3E3 variant; VH SEQ ID NO: 6, VL SEQ ID NO: 22 (antibody, V domains shown)
VH: QIQLVQSGAEVKKPGSSVKVSCKASGYTFTDYAMNWVRQAPGQGLEWMGWINTQTGKPTYAQKFQGRVTFTLDESTSTTYMELSSLRSEDTAVYYCARLGTGNTKGFAYWGQGTLVTVSS
VL: DIQMTQSPSSLSASVGDRVTITCKSSQSLLYSENNQDYLAWYQQKPGKVPKLLIYGASNRHTGVPSRFSGSGSGTDFTLTISSLQPEDVATYYCEQTYRYPFTFGQGTKLEIK
In assay [1] (Table 13, 79E3E3 variants), B3 yielded an EC50 of 2.07 nM. This lies in the single-digit nanomolar range.

B4: A11BB143: 79E3E3 variant; VH SEQ ID NO: 15, VL SEQ ID NO: 22 (antibody, V domains shown)
VH: QVQLVQSGAEVKKPGSSVKVSCKASGYTFTDYAMNWVRQAPGQGLEWMGWINTQTGKPTYAQKFQGRVTFTLDESTSTAYMELSSLRSEDTAVYYCTRLGTGNTKGFAYWGQGTLVTVSS
VL: DIQMTQSPSSLSASVGDRVTITCKSSQSLLYSENNQDYLAWYQQKPGKVPKLLIYGASNRHTGVPSRFSGSGSGTDFTLTISSLQPEDVATYYCEQTYRYPFTFGQGTKLEIK
B4 had an EC50 in assay [1] (Table 13, 79E3E3 variants) of 2.12 nM.

B5: A11BB131: 79E3E3 variant; VH SEQ ID NO: 11, VL SEQ ID NO: 21 (antibody, V domains shown)
VH: QIQLVQSGSELKKPGASVKISCKASGYTFTDYAMNWVRQAPGQGLEWMGWINTQTGKPTYAQGFTGRFVFSLDTSVRTAYLQISSLKAEDTAVYFCTRLGTGNTKGFAYWGQGTLVTVSS
VL: DIQITQSPSSLSASVGDRVTITCKSSQSLLYSENNQDYLAWYQQKPGKVPKLLIYGASNRHTGVPSRFSGSGSGTDFTLTISSLQPEDVATYYCEQTYRYPFTFGQGTKLEIK
With B5, a half-maximal response in assay [1] (Table 13, 79E3E3 variants) (EC50) required 2.49 nM. The EC50 values of the last two molecules are within 1.5-fold of each other.

B6: A11BB112: 16E10 variant; VH SEQ ID NO: 49, VL SEQ ID NO: 61 (antibody, V domains shown)
VH: EVQLLESGGGLVQPGGSLRLSCAASGFSFSSSYYMCWVRQAPGKGLEWVSCIGTTRGSTYYADSVKGRFTISRDNSKNTLYLQMNSLRAEDTAVYYCARDATGYRINTIGLYFNLWGQGTLVTVSS
VL: DIVMTQSPDSLAVSLGERATINCQASQTIYSYLSWYQQKPGQPPKLLIYEASKLASGVPDRFSGSGSGTDYTLTISSLQAEDVAVYYCQSYHGTASTEYNTFGGGTKVEIK
As to B6, in assay [2] (setting [6]), the concentration for half-maximal inhibition (IC50) amounted to 0.5 nM.

B7: A11BB114: 16E10 variant; VH SEQ ID NO: 50, VL SEQ ID NO: 61 (antibody, V domains shown)
VH: EVQLLESGGGLVQPGGSLRLSCAASGFSFSSSYYMCWVRQAPGKGLEWVSCIGTTRGSTYYADSVKGRFTISRDNSKNTVYLQMNSLRAEDTAVYYCARDATGYRINTIGLYFNLWGQGTLVTVSS
VL: DIVMTQSPDSLAVSLGERATINCQASQTIYSYLSWYQQKPGQPPKLLIYEASKLASGVPDRFSGSGSGTDYTLTISSLQAEDVAVYYCQSYHGTASTEYNTFGGGTKVEIK
B7: the IC50 in assay [2] (setting [6]) was found to be 0.5 nM.

B8: A11BB127: 16E10 variant; VH SEQ ID NO: 46, VL SEQ ID NO: 61 (antibody, V domains shown)
VH: EVQLLESGGGLVQPGGSLRLSCAASGFSFSSSYYMAWVRQAPGKGLEWVSAIGTTRGSTYYADSVKGRFTISRDNSKNTVYLQMNSLRAEDTAVYYCARDATGYRINTIGLYFNLWGQGTLVTVSS
VL: DIVMTQSPDSLAVSLGERATINCQASQTIYSYLSWYQQKPGQPPKLLIYEASKLASGVPDRFSGSGSGTDYTLTISSLQAEDVAVYYCQSYHGTASTEYNTFGGGTKVEIK
Consider B8, for which, in assay [2] (setting [6]), the IC50 worked out at 0.4 nM.

B9: A11BB117: 16E10 variant; VH SEQ ID NO: 56, VL SEQ ID NO: 61 (antibody, V domains shown)
VH: EVQLLESGGGLVQPGGSLRLSCAASGFSFSSSYYMSWVRQAPGKGLEWVSAIGTTRGSTYYADSVKGRFTISRDSSKNTVYLQMNSLRAEDTAVYFCARDATGYRINTIGLYFNLWGQGTLVTVSS
VL: DIVMTQSPDSLAVSLGERATINCQASQTIYSYLSWYQQKPGQPPKLLIYEASKLASGVPDRFSGSGSGTDYTLTISSLQAEDVAVYYCQSYHGTASTEYNTFGGGTKVEIK
For B9, in assay [2] (setting [6]), the IC50 was found to be 0.7 nM.

B10: A11BB121: 16E10 variant; VH SEQ ID NO: 53, VL SEQ ID NO: 61 (antibody, V domains shown)
VH: EVQLLESGGGLVQPGGSLRLSCAASGFSFSSSYYMSWVRQAPGKGLEWVSAIGTTRGSTYYADSVKGRFTISRDNSKNTLYLQMNSLRAEDTAVYYCARDATGYRINTIGLYFNLWGQGTLVTVSS
VL: DIVMTQSPDSLAVSLGERATINCQASQTIYSYLSWYQQKPGQPPKLLIYEASKLASGVPDRFSGSGSGTDYTLTISSLQAEDVAVYYCQSYHGTASTEYNTFGGGTKVEIK
Regarding B10, the concentration for half-maximal inhibition (IC50) in assay [2] (setting [6]) came out at 0.5 nM.

B11: A11BB119: 16E10 variant; VH SEQ ID NO: 45, VL SEQ ID NO: 61 (antibody, V domains shown)
VH: EVQLLESGGGLVQPGGSLRLSCAASGFSFSSSYYMAWVRQAPGKGLEWVSAIGTTRGSTYYADSVKGRFTISRDNSKNTLYLQMNSLRAEDTAVYYCARDATGYRINTIGLYFNLWGQGTLVTVSS
VL: DIVMTQSPDSLAVSLGERATINCQASQTIYSYLSWYQQKPGQPPKLLIYEASKLASGVPDRFSGSGSGTDYTLTISSLQAEDVAVYYCQSYHGTASTEYNTFGGGTKVEIK
Turning to B11, in assay [2] (setting [6]), the IC50 was determined as 0.7 nM.

B12: A11BB129: 16E10 variant; VH SEQ ID NO: 54, VL SEQ ID NO: 61 (antibody, V domains shown)
VH: EVQLLESGGGLVQPGGSLRLSCAASGFSFSSSYYMSWVRQAPGKGLEWVSAIGTTRGSTYYADSVKGRFTISRDNSKNTVYLQMNSLRAEDTAVYYCARDATGYRINTIGLYFNLWGQGTLVTVSS
VL: DIVMTQSPDSLAVSLGERATINCQASQTIYSYLSWYQQKPGQPPKLLIYEASKLASGVPDRFSGSGSGTDYTLTISSLQAEDVAVYYCQSYHGTASTEYNTFGGGTKVEIK
With B12, the IC50 in assay [2] (setting [6]) stood at 0.5 nM.

B13: A11BB125: 16E10 variant; VH SEQ ID NO: 55, VL SEQ ID NO: 61 (antibody, V domains shown)
VH: EVQLLESGGGLVQPGGSLRLSCAASGFSFSSSYYMSWVRQAPGKGLEWVSAIGTTRGSTYYADSVKGRFTISRDSSKNTLYLQMNSLRAEDTAVYYCARDATGYRINTIGLYFNLWGQGTLVTVSS
VL: DIVMTQSPDSLAVSLGERATINCQASQTIYSYLSWYQQKPGQPPKLLIYEASKLASGVPDRFSGSGSGTDYTLTISSLQAEDVAVYYCQSYHGTASTEYNTFGGGTKVEIK
For B13, the half-inhibitory concentration (IC50) in assay [2] (setting [6]) was found to be 0.5 nM.

B14: A11BB123: 16E10 variant; VH SEQ ID NO: 47, VL SEQ ID NO: 61 (antibody, V domains shown)
VH: EVQLLESGGGLVQPGGSLRLSCAASGFSFSSSYYMAWVRQAPGKGLEWVSAIGTTRGSTYYADSVKGRFTISRDSSKNTLYLQMNSLRAEDTAVYYCARDATGYRINTIGLYFNLWGQGTLVTVSS
VL: DIVMTQSPDSLAVSLGERATINCQASQTIYSYLSWYQQKPGQPPKLLIYEASKLASGVPDRFSGSGSGTDYTLTISSLQAEDVAVYYCQSYHGTASTEYNTFGGGTKVEIK
As to B14, the IC50 in assay [2] (setting [6]) was 0.5 nM.

Values taken from patent US20260184794A1, “ANTIBODIES AGAINST INTEGRIN ALPHA 11 BETA 1 AND USES THEREOF” (Momenta Pharmaceuticals, Inc., priority 2022, published 2026).
